Columns and labels:
[1] = In vivo screening in E. coli #1363/#1730 with lactose as acceptor, sialyllactose identified by TLC; format: cell-based, Escherichia coli BL21(DE3); conditions: 1.5 mM lactose, 72 to 96 hours, qualitative via TLC
Outline: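 E. coli BL21(DE3) #1363/#1730 expressing sialyltransferases were grown at 30 °C in mineral salts medium with 2% glucose and induced with 0.3 mM IPTG. After 1 h, 1.5 mM lactose was added, plus 1.5 mM sialic acid for #1730, and incubation ran 72–96 h. Cell lysates were analysed by silica TLC with thymol staining.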

[2] = In vitro sialylation of LNT by protein extracts, LST-a/-b quantified by LC-MS/MS; format: biochemical; conditions: 5 mM LNT, 10 mM CMP-Neu5Ac, 16 hours, LC-MS/MS; relative quantity; n.d.: not detectable
Outline: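 E. coli BL21(DE3) crude extracts overexpressing sialyltransferases (IPTG 0.3 mM, 12–16 h at 30 °C) incubated 16 h with 5 mM LNT and 10 mM CMP-Neu5Ac in 50 mM Tris-HCl pH 7.5, 5 mM MgCl2. LST-a and LST-b measured by HILIC LC-MS/MS, MRM in ESI negative mode, against commercial standards.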

| Molecule | Production of sialyllactose in-vivo [1] | Relative efficacy of sialyltransferases regarding in-vitro production of sialyllacto-N-tetraoses: LST-a [2] | Relative efficacy of sialyltransferases regarding in-vitro production of sialyllacto-N-tetraoses: LST-b [2] |
| --- | --- | --- | --- |
| SiaT30: sialyltransferase of Haemophilus parahaemolyticus HK385, acc. EIJ71207, SEQ ID NO: 19 (protein, listed as Haemophilus parahaemolyticus) MTEQYIKNVEVYLDYATIPTLNYFYHFTENKDDIATIRLFGLGRFNISKSIIESYPEGIIRYCPIIFEDQTAFQQLFITLLTEDSFCQYRFNFHINLFHSWKMLIPLLHIIWQFKHKVLDIKLNFYDDGSEGLVTLSKIEQNYSSEILQKIIDIDSQSFYADKLSFLDEDIARYLWNSLFESHYYLLNDFLLKNEKLSLLKNSIKYCHIMDLERYLQFTQEEKDFFNELLGINIQSLEDKIKIFQQKKTFIFTGTTIFSLPKEEEETLYRLHLNAILNYIHPNGKYFIGDGFTLVIKGHPHQKEMNSRLEKSFEKAVMLPDNIPFEILYLIGCKPDKIGGFVSTSYFSCDKKNIADLLFISARQEEVRKNDYLFNIQYQLRDMMIKTGFIQEEKTHFYSDIPIFIS | 3′-SL | 17 |  |
| SiaT31: sialyltransferase of Alistipes sp. CAG:268, acc. CDC95697, SEQ ID NO: 22 (protein, listed as Alistipes sp.) MASCSDDDKEQTGFQIDDGSGFLSLDAAARSGSIAITANNSWSVTQDKDSEWLTLSTTSGAAGRTEIGIMLEANPGEARNAGLTFNSGGRTYPFVITQSAHVTADFDDADHCFYITFGTLPTLYAGLHVLSHDKPSYVFFQRSQTFRPEEFPAHAEVTIAADPSANATDEDMERMRTAMKQQILKINVEDPTAVFGLYVDDLRCGIGYDWFVAQGIDSTRVKVSMLSDGTGTYNNFYNYFGDPATAEQNWENYAAQVEALDWQHGGRFPETRMPDGFDFYEWPYYLATRPNYRLVLQDDDLLEATSPFMTERLQQMRTESKQPYELLASLPAEARQRFFRMAGFDYDAFAALFDASPKKNLVIIGTSHTSEESEAQQAAYVERIIGDYGTAYDIFFKPHPADSSSSNYEERFEGLTLLPGQMPFEIFVWSLLDKVDLIGGYSSTVFLTVPVEKTGFIFAANAESLPRPLNVLFRNAEHVRWIQ | 3′-SL | 4 |  |
| SiaT32: sialyltransferase of Alistipes sp. AL-1, acc. WP_032134786, SEQ ID NO: 15 (protein, listed as Alistipes sp.) MALLSGTAACSDDEVSQNLIVINGGEHFLSLDGLARAGKISVLAPAPWRVTKAAGDTWFRLSATEGPAGYSEVELSLDENPGAARSAQLAFACGDAIVPFRLSQGALSAGYDSPDYYFYVTFGTMPTLYAGIHLLSHDKPGYVFYSRSKTFDPAEFPARAEVTTAADRTADATQAEMEAMAREMKRRILEINSADPTAVFGLYVDDLRCRIGYDWFVAQGIDSARVKVSMLSDGTGTYNNFYNYFGDAATAEQNWESYASEVEALDWNHGGRYPETRSLPEFESYTWPYYLSTRPDYRLVVQDGSLLESSCPFITEKLGEMEIESIQPYEMLSALPESSRKRFYDMAGFDYDKFAALFDASPKKNLIIIGTSHADDASARLQRDYVARIMEQYGAQYDVFFKPHPADTTSAGYETEFPGLTLLPGQMPFEIFVWSLIDRVDMIGGYPSTVFLTVPVDKVRFIFAADAASLVRPLNILFRDATDVEWMQ | 3′-SL, 6′-SL | 64 |  |
| SiaT34: sialyltransferase of Pasteurella multocida PM70, acc. NC_002663, SEQ ID NO: 6 (protein, listed as Pasteurella multocida) MDKFAEHEIPKAVIVAGNGESLSQIDYRLLPKNYDVFRCNQFYFEERYFLGNKIKAVFFTPGVFLEQYYTLYHLKRNNEYFVDNVILSSFNHPTVDLEKSQKIQALFIDVINGYEKYLSKLTAFDVYLRYKELYENQRITSGVYMCAVAIAMGYTDIYLTGIDFYQASEENYAFDNKKPNIIRLLPDFRKEKTLFSYHSKDIDLEALSFLQQHYHVNFYSISPMSPLSKHFPIPTVEDDCETTFVAPLKENYINDILLPPHFVYEKLGVDKLAAALEHHHHHH | 3′-SL | 2.34 × 10^3 |  |
| SiaT37: sialyltransferase of Campylobacter jejuni strain 81-176, acc. AAL09368, SEQ ID NO: 16 (protein, listed as Campylobacter jejuni) MKKVIIAGNGPSLKEIDYSRLPNDFDVFRCNQFYFEDKYYLGKKCKAVFYTPNFFFEQYYTLKHLIQNQEYETELIMCSNYNQAHLENENFVKTFYDYFPDAHLGYDFFKQLKEFNAYFKFHEIYFNQRITSGVYMCAVAIALGYKEIYLSGIDFYQNGSSYAFDTKQENLLKLAPDFKNDRSHYIGHSKNTDIKALEFLEKTYKIKLYCLCPNSLLANFIELAPNLNSNFIIQEKNNYTKDILIPSSEAYGKFSKNINFKKIKIKENVYYKLIKDLLRLPSDIKHYFKGK | 3′-SL | 40 |  |
| SiaT39: sialyltransferase of Alistipes shahii WAL 8301, acc. YP_007816735, SEQ ID NO: 23 (protein, listed as Alistipes shahii) MDDGTPSVSINGGTDFLSLDHLARSGKITVNAPAPWSVTLAPENYGQDEKPDWLTLSAEEGPAGYSEIDVTFAENPGPARSASLLFSCDGKTLAFTVSQSAGGTGFDAPDYYFYISVGTMPTLYSGLHLLSHDKPSYVSYERASTFDAAEFPDRAFVYPVADPTGHATNEELRAMSEAMKRRILEINAEDPTAVFGLWVDDLRCRLGYDWFVAQGIDSARVKVTMLSDGTATYNNFHNYFGDAATAEQNWNDYAAEVEALDWNHGGRYPETRAPEEFASYTWPYYLSTRPDYRLMLQNSSLMESSCPFIADRLAAMKMESVQPYELLTALPEASKQQFYRMAKFDYARFAGLFDLSPKKNLIIIGTSHSSAASEQQQAAYVERIIQQYGSDYDIFFKPHPADSSSAGYPDRFEGLTLLPGQMPFEIFVWALLDKIDMIGGYPSTTFISVPLDKVGFLFAADADGLVRPLNILFRDAANVEWIQ | 3′-SL | 4 |  |
| SiaT41: sialyltransferase of Actinobacillus suis ATCC 33415, acc. AIJ32009, SEQ ID NO: 24 (protein, listed as Actinobacillus suis) MERTPQLQAVDIYIDFATIPSLSYFLHFLKHKHDDQRLRLFSLARFEMPQTLIEQYEGIIQFSRNVEHNVEPLLEQLQTILSQEGKQFELHLHLNLFHSFEMFLNLSPTYTQYKEKISKIVLHLYDDGSEGVMKQYQLQKSSSLVQDLAATKASLVSLFENGEGSFSQIDLIRYVWNAVLETHYYLLSDHFLLDEKLQPLKAELGHYQLLNLSAYQYLSSEDLLWLKQILKIDTELESLMQKLTAQPVYFFSGTTFFNISFEDKQRLANIHAILIREHLDPNSQLFIGEPYLFVFKGHPNSPEINQALREYYPNVIFLPENIPFEILTLLGFSPQKIGGFASTIHVNSEQSKLAKLFFLTSTDEQERQLSDGYIKQYALAQAMLEMQLVSQEQVYYCSLSS | 3′-SL | 3 |  |
| SiaT42: sialyltransferase of Actinobacillus capsulatus DSM 19761, acc. WP_018652686, SEQ ID NO: 25 (protein, listed as Actinobacillus capsulatus) MERIPQLQAVDIYIDFATIPSLSYFLHFLKHKHDHQRLRLFSLARFEMPQTVIEQYEGIIQFSRNVEHNVEQLLEQLQTILSQEGKQFELHLHLNLFHSFEMFLNLSPTYTKYKEKISKIVLHLYDDGSEGVMKQYQLQQSNSLAQDLASTKASLVSLFKNGEGAFSQIDLIRYVWNAVLETHYYLLSDHFLAHEKLQPLKIELGHYQLLNLSAYQYLSSEDLLWLKQILKIDAELESLMHKLTTQPVYFFSGTTFFNISFEDKQRLANIHAILIREHLDPNSQLFIGEPYLFVFKGHPNSPEINQALREYYPNAIFLPENIPFEILTLLGFSPQKIGGFASTIHVNSEQSKLAKLFFLTSTDEQERNRSDGYIKQYALAQAMLEMQLVSQEQVYYCSLSS | 3′-SL | 3 |  |
| SiaT43: sialyltransferase of Bibersteinia trehalosi USDA-ARS-USMARC-189, acc. AHG84654, SEQ ID NO: 18 (protein, listed as Bibersteinia trehalosi) MEFCKMATTQKICVYLDYATIPSLNYILHFAQHFEDQETIRLFGLSRFHIPESVIQRYPKGVVQFYPNQEKDFSALLLALKNILIEVKQQQRKCEIELHLNLFHYQLLLLPFLSLYLDTQDYCHLTLKFYDDGSEAISALQELALAPDLAAQIQFEKQQFDELVVKKSFKLSLLSRYFWGKLFESEYIWFNQAILQKAELQILKQEISSSRQMDFAIYQQMSDEQKQLVLEILNIDLNKVAYLKQLMENQPSFLFLGTTLFNITQETKTWLMQMHVDLIQQYCLPSGQFFNNKAGYLCFYKGHPNEKEMNQMILSQFKNLIALPDDIPLEILLLLGVIPSKVGGFASSALFNFTPAQIENIIFFTPRYFEKDNRLHATQYRLMQGLIELGYLDAEKSVTHFEIMQLLTKE | 3′-SL | 21 |  |
| SiaT51: sialyltransferase of Photobacterium damselae subsp. damselae CIP 102761, acc. EEZ40509, SEQ ID NO: 32 (protein, listed as Photobacterium damsela) MKKILTVLSIFILSACNSDNTSLKETVSSNSADVVETETYQLTPIDAPSSFLSHSWEQTCGTPILNESDKQAISFDFVAPELKQDEKYCFTFKGITGDHRYITNTTLTVVAPTLEVYIDHASLPSLQQLIHIIQAKDEYPSNQRFVSWKRVTVDADNANKLNIHTYPLKGNNTSPEMVAAIDEYAQSKNRLNIEFYTNTAHVFNNLPPIIQPLYNNEKVKISHISLYDDGSSEYVSLYQWKDTPNKIETLEGEVSLLANYLAGTSPDAPKGMGNRYNWHKLYDTDYYFLREDYLDVEANLHDLRDYLGSSAKQMPWDEFAKLSDSQQTLFLDIVGFDKEQLQQQYSQSPLPNFIFTGTTTWAGGETKEYYAQQQVNVINNAINETSPYYLGKDYDLFFKGHPAGGVINDIILGSFPDMINIPAKISFEVLMMTDMLPDTVAGIASSLYFTIPADKVNFIVFTSSDTITDREEALKSPLVQVMLTLGIVKEKDVLFWADLPDCSSGVCIDK | 6′-SL |  | 10 |

Source: patent US12692524B2, “Sialyltransferases and their use in producing sialylated oligosaccharides” (Chr. Hansen A/S, priority 2017, dated 2026)
